From US20180271960A1, “METHOD TO TREAT CANCER USING ARGININE DELPETOR AND ORNITHINE DECARBOXYLASE (ODC) INHIBITOR” (Bio-Cancer Treatment International Ltd., priority 2015, published 2018)
Entries after “also recorded” stand apart in the source; their conditions may differ.

Key:
[1] = system: SU-DHL-6 B cell lymphoma xenograft; assay: SU-DHL-6 B cell lymphoma xenograft model; assay type: in vivo, mouse; conditions: SU-DHL-6 xenograft; PEG-BCT-100 20 mg/kg IV twice a week; DFMO 2% w/v in drinking water
Protocol: (§1) In one example embodiment, the SU-DHL-6 human lymphoma cells are maintained in vitro as a suspension culture in RPMI1640 medium supplemented with 10% heat inactivated fetal bovine serum at 37° C. in an atmosphere of 5% CO2 in air. The tumour cells are routinely sub-cultured twice weekly. The cells growing in an exponential growth phase are harvested and counted for tumour inoculation.
One day before tumour inoculation, all mice are sub-lethally irradiated with 60Co (200 rad). Each mouse is inoculated subcutaneously at the right flank region with SU-DHL-6 tumour cells (5×10^6) in 0.1 ml of PBS/Matrigel (1:1) for tumour development. The treatments start when the mean tumour size reaches 125 mm^3. The date of tumour cell inoculation is denoted as day 0.
(§2) Four groups of animals, with eight animals in each group, are tested. Control group (negative control) receives physiological saline, and the three treatment groups respectively receive 20 mg/kg of PEG-BCT-100 alone, 2% w/v DFMO in drinking water, and a combination of 20 mg/kg of PEG-BCT-100 and 2% w/v DFMO. PEG-BCT-100 is administered intravenously, twice a week, until euthanization while DFMO is supplied in drinking water at 2% w/v.

[2] = system: Kasumi-1 leukemia xenograft; assay: Kasumi-1 leukemia xenograft model; assay type: in vivo, mouse; conditions: Kasumi-1 xenograft; for anti-tumour effect: PEG-BCT-100 20 mg/kg IV twice a week, DFMO 2% w/v in drinking water
Protocol: as §1, with “Kasumi-1 tumour” for “SU-DHL-6 human lymphoma”
All mice are γ-irradiated (200 rad) for 24 h before tumour cell injection. Kasumi-1 tumour cells (1×10^7) in 0.2 ml of PBS are mixed with cultrex in a 1:1 ratio. Each mouse is inoculated subcutaneously at the right flank region with the tumour cells suspension for tumour development. The treatments start when the mean tumour size reached 114 mm^3. The date of tumour cell inoculation is denoted as day 0.
as §2, with “Four treatment” for “Four”, “and” for “and a”

[3] = system: Hep G2 hepatocellular carcinoma xenograft; assay: Hep G2 hepatocellular carcinoma xenograft model; assay type: in vivo, mouse; conditions: PEG-BCT-100 20 mg/kg IV twice a week, DFMO 2% w/v in drinking water
Protocol: as §1, with “Hep G2” for “SU-DHL-6”, “liver cancer” for “lymphoma”, “vitro” for “vitro as a suspension”, “10%” for “10% heat inactivated”, “cells” for “cells growing”
Each mouse is inoculated subcutaneously at the right flank region with Hep G2 tumour cells (1×10^7) in 0.2 ml of PBS (1:1 Matrigel) for tumour development. The treatments start when the mean tumour volume reaches 124 mm^3. The date of tumour cell inoculation is denoted as day 0.
as §2, with “Four treatment” for “Four”, “and” for “and a”

[4] = system: H23 lung adenocarcinoma cell line; assay: MTT assay, growth inhibition of H23 cell line; assay type: cell-based; conditions: 48 h and 72 h at 0.5 ng/μl and 10 ng/μl
Protocol: (§3) The inhibition ratio (IR) and the half maximal inhibitory concentration (IC50) values are determined by a MTT assay.

[5] = system: H358 lung adenocarcinoma cell line; assay: MTT assay, growth inhibition of H358 cell line; assay type: cell-based; conditions: 48 h and 72 h at 10 ng/μl
Protocol: as §3

[6] = system: HCC827 lung adenocarcinoma cell line; assay: MTT assay, growth inhibition of HCC827 cell line; assay type: cell-based; conditions: 48 h and 72 h at 0.5 ng/μl and 10 ng/μl
Protocol: as §3

[7] = system: H1650 lung adenocarcinoma cell line; assay: MTT assay, growth inhibition of H1650 cell line; assay type: cell-based; conditions: 48 h and 72 h at 10 ng/μl
Protocol: as §3

[8] = system: H1975 lung adenocarcinoma cell line; assay: MTT assay, growth inhibition of H1975 cell line; assay type: cell-based; conditions: 48 h and 72 h at 0.5 ng/μl and 10 ng/μl
Protocol: as §3

[9] = system: HCC2935 lung adenocarcinoma cell line; assay: MTT assay, growth inhibition of HCC2935 cell line; assay type: cell-based; conditions: 72 h at 10 ng/μl only
Protocol: as §3

[10] = system: HCC4006 lung adenocarcinoma cell line; assay: MTT assay, growth inhibition of HCC4006 cell line; assay type: cell-based; conditions: 48 h and 72 h at 0.5 ng/μl and 10 ng/μl
Protocol: as §3

[11] = system: A549 lung adenocarcinoma cell line; assay: MTT assay, growth inhibition of A549 cell line; assay type: cell-based; conditions: 48 h and 72 h at 0.5 ng/μl and 10 ng/μl
Protocol: as §3

[12] = system: lung adenocarcinoma cell lines (H23, H358, HCC827, H1650, H1975, HCC2935, HCC4006, and A549); assay: MTT assay on the panel of eight lung adenocarcinoma cell lines; assay type: cell-based; conditions: all tested cell lines; MTT assay after treatment for 72 h
Protocol: as §3

[13] = system: lung adenocarcinoma cell lines (H358, H1650, H1975, and HCC4006); assay: Intracellular arginine level by arginine ELISA kit; assay type: cell-based; conditions: all examined cell lines; IC50 concentrations and 0.1 μg/μl
Protocol: In one example embodiment, four lung adenocarcinoma cell lines (i.e. H358, H1650, H1975, and HCC4006), obtained from ATCC, are treated with PEG-BCT-100 at IC50 concentrations and 0.1 μg/μl. Internalization of PEG-BCT-100 by lung adenocarcinoma cells are assessed by immunocytochemistry using anti-PEG-antibodies. Detection is done using anti-rabbit Alexa 488 conjugated secondary antibody and visualization is performed using a fluorescent microscope. The PEG-BCT-100 treated lung adenocarcinoma cells are lysed in RIPA buffer for determination of arginine level by K7733 arginine ELISA kit from Immunodiagnostik.

Row | Molecule | anti-tumour effect [1] | TGI ([2]; 2% DFMO in drinking water) [%] | anti-tumour effect [2] | anti-tumour effect [3] | growth inhibition effect (cell proliferation) [4] | growth inhibition effect (cell proliferation) [5] | growth inhibition effect (cell proliferation) [6] | growth inhibition effect (cell proliferation) [7] | growth inhibition effect (cell proliferation) [8] | growth inhibition effect (cell proliferation / toxicity) [9] | growth inhibition effect (cell proliferation) [10] | growth inhibition effect (cell proliferation) [11] | cytotoxicity (cell viability) [12] | intracellular (cytosolic) arginine level [13]
1 | NCCC[C@](N)(C(=O)O)C(F)F [DFMO, α-difluoromethylornithine, reference compound] | do not produce a significant anti-tumour effect | 45 | significant anti-tumour activity | significant anti-tumour effect |  |  |  |  |  |  |  |  |  | 
2 | PEG-BCT-100: pegylated recombinant human arginase I (SEQ ID NO.1, or SEQ ID NO.3 with six histidines), about 6-12 PEG molecules per arginase (protein, UniProt P05089 1-322, looked up, PEG, about 6-12 per arginase; optional His6 tag) Arginase-1: MSAKSRTIGIIGAPFSKGQPRGGVEEGPTVLRKAGLLEKLKEQECDVKDYGDLPFADIPNDSPFQIVKNPRSVGKASEQLAGKVAEVKKNGRISLVLGGDHSLAIGSISGHARVHPDLGVIWVDAHTDINTPLTTTSGNLHGQPVSFLLKELKGKIPDVPGFSWVTPCISAKDIVYIGLRDVDPGEHYILKTLGIKYFSMTEVDRLGIGKVMEETLSYLLGRKKRPIHLSFDVDGLDPSFTPATGTPVVGGLTYREGLYITEEIYKTGLLSGLDIMEVNPSLGKTPEEVTRTVNTAVAITLACFGLAREGNHKPIDYLNPPK | do not produce a significant anti-tumour effect |  | no significant anti-tumour effect |  | inhibits H23 lung adenocarcinoma cell line proliferation more effectively than ADI | inhibits H358 lung adenocarcinoma cell line proliferation more effectively than ADI | inhibits HCC827 lung adenocarcinoma cell line proliferation more effectively than ADI | inhibits H1650 lung adenocarcinoma cell line proliferation more effectively than ADI | inhibits H1975 lung adenocarcinoma cell line proliferation | induces toxicity in HCC2935 lung adenocarcinoma cell line | inhibits HCC4006 lung adenocarcinoma cell line proliferation more effectively than ADI | inhibits A549 lung adenocarcinoma cell line proliferation more effectively than ADI | induces cytotoxicity in all tested lung adenocarcinoma cell lines | depletes intracellular arginine significantly; also recorded: able to deplete cytosolic arginine level significantly
